Assay: yeast display, Sf9 membrane polyspecificity reagent, FACS + sequencing; frameworks hold sequencing errors
How it was run: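 Polyreactivity labels are assigned by the sorting gate from which each nanobody was recovered. The gates were low and high (top ~1%), set on anti-HA fluorescence for expression and streptavidin fluorescence for reagent binding. Before sorting, galactose-induced (36–48 hours) yeast display cells were stained for 1 hour at 4 °C with 10% biotinylated, detergent-solubilized Sf9 membrane reagent.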

Sequence	polyreactivity (PSR sort gate)
QVKLVESGGGLVQAGGSLLLSCAASGITFSRNAMGLYREAPGKERELVAAINWTGGNTYYADSVKGRFTISRDNAKNTVYLQMISMKPEDTAVYYCAAERRCFVWGLGYWGQGTQVTVSS	low polyreactivity
QVQLVESGGGLVQAGGSLRLSCAASGSTFGGNAMGWYRQAPGKERELVAGITSSGTSTYYADSVKGRFTISRDNAKNTVYLQMNSLKPEDTAVYYCATDEADESYGFELFDYWGQGTQVTVSS	low polyreactivity
QVQLVESGGGLVQAGGSLRLSCAASGRTFVINAMGWYRQAPGKERELVAAISRGGSTNYADSVKGRFTISRDNAKNTVYLQMNSLKPEDTAVYYCNADYPNWWSPFDYWGQGTQVTVSS	low polyreactivity
QVQLVESGGGLVQAGGSLRLSCAASGRTFKYNAMGWYRQAPGKERELVAAISSTGSTNYADSVKGRFTISRDNAKNTVYLQMNSLKPEDTAVYYCAASYFFVQWGWYYYWGQGTQVTVSS	low polyreactivity
QVQLVESGGGLVQAGGSLRLSCAASGTIFLWYAMGWYIQAPGKERELVASITRGGNTYYADSVKGRFTISRDNAKNTVYLQMISLKPEDTAVYYCAAVSRFWRVPYTYDYWGQGTHVTVSS	low polyreactivity
QVQLVESGGGLVQAGGSLRLSCAASGRTFAVYAMGWYRQAPGKERELDAAITYGGGRTYYADSVKGRFTISRDNAKNTVYLQMYSLKPEDTAVYYCAADYYGTDYDYWGQGTQVTVSS	low polyreactivity
QVQLVESGGGLVQAGGSLRLSCSASGRISNAMGWYRQAPGKERELVATINSGASTNYADSVKGRFTISRDNAKNTVYLQMNSLKPEDTAVYYCNVAYVYGSFRRRPMGYLGQGTQVTVSS	high polyreactivity
QVQHVESGRGLVQAGGSLRLICAASGRIFDLNDMGRSRQAPGKERELVAAITSAGSTYYADSVKGRFTISRDNAKNTVYLQMNSLKPEDTAVYYCNKVARGVVRPGRVGSDYWAQGTQVTVSS	high polyreactivity
QVQLVESGGGLVQAGGSLSLSCAASGRTFIFYAMGWYRQAPGKERELVAAISSSGSGTYYADSVKGRFTISRDNAKNTVYLQMNSLKPEDTAVYYCAADVVNSRRRPKYGYWGQGTQVTVSS	low polyreactivity
QVQLVESGGGLVQAGGSLRLSCAASGRIFSNNAMGWYRQAPGKERELVATITGSGGRTYYADSVKGRFTISRDIAKNSVYLQMNSLKPEDTAVYYCNADLYSYYWRVRYGLDYWGQGTQVTVSS	high polyreactivity
QVQLVESGGGLVQAGGSLRLSCAASGIFSYYAMGWYRPAPGKERELVAAISSSGGSTYYADSVKGRFTISRDNAMNTVYLQMNSLKPEDTAVYYCNVRNYYNDYYYWGQGTQVTVSS	high polyreactivity
QVQLVESGGGLVQAGGSLRLSCAASGSTFVNNAMGWYRQAPGKERELVAAITNGGSTNYADSVKGRFTISRDNAKNTVYLQMNSLKPEDTAVYYCAKYGDPYRHRSGTVEYGYWGQGTQVTVSS	low polyreactivity
QVQLVESRGGLVQAGGSLRLSCAASGIIFDTNAMGWYRQAPGKERELVATITQRGGTTYYADSVKGRFTISRDNAKNTVYLQMNSLKPEDTAVYYCNAGPVRLPYDSWGQGTQVTVSS	low polyreactivity
QVQLVESVGGLVQAGGSLRLSCSASGTFRRNVKGWYRQAPGKERELVAAIRSGGSTYYADSVKGRFTISRDNAKHTVFLQMNSLKPEDTAVYYCASDRPGHSFYDEWYRYDSWGQGTQVTVSS	low polyreactivity
QVQLVESGGRLVQAGGSLRLSCAASGSTFYPYAMGWYRQAPGKERELVAAINGNGGRTYYADSVKGRFTISRDNAKNTVYLQMNSLKPEDTAVFYCAVVRVAWGHRSDYWGQGTQVTVSS	high polyreactivity
QVQLVESGGGLVQAGGSLRLSCAASGFTFATYAMGWYRQAPGKERELVAAISKSGGSTYYADSVKGRFTISRDNAKNTVYLQMNSLKPEDTAVYYCAKRRSVRYDYWGQGTQVTVSS	high polyreactivity
QVQLVESGGGLVQAGGSLRLSCAASGSTFSRYAMGWYRPAPGKERELVAAISGTDDSTYYADSVKGRFTISRDNAKNTVYLQMNSLKPEDTAVYYCAARLVESRYGFGYEYYYWGQGTQVTVSS	low polyreactivity
QVHLVESGGGLVQAGGSLRLSCAASGGIFDYYAMGWYRQAPGKERELVATISRGGSTYYADSVKGRFTISRDNAKNTVYLQMNSLKPEDTAVYYCAARQTRYWYRAWFVEHDYWGQGTKVTVSS	high polyreactivity
QVQLVESGGGLVQAGGSLRLSCAASGYTIRGYVMGWYRQAPGKERELVAAISASGGRTYYADSVKGRFTISRDNAKNTVYLQMNSLKPEHTAVYYCAASKSKISSLDYWGQGTQVTVSS	high polyreactivity
QVQLVESGGGLVQAGGSLRLSCAASGFIFHLYGMAWYRQAPGKERELVAAISSGGRAYYADSVKGRFTISRDNAKNTVYLQMNSLKPEDTAVYDCAVYVAYLYSYYYWGQGTQVTVSS	low polyreactivity
QVQLVESGGGLVQAGGSLRLSCAASGSTFLSYVMGWYRQAPGKERELVAAISGITGSTYYADSVKGRFTLSRDNAKNTVYLQMNSLKPQDTAVYYWAKVYGYNRLFYYRYDYWGQGTQVTVSS	high polyreactivity
QVHLVESGGGLVQAGGSLRLSCAASGRTFGYYAMGWYRQAPAKERELVAAITSDGRTNYADSVKGRFTISRDNAKNTVYLQMNSLKPEDTAVYYCAAQILGTFYEYDYWGQGTQVTVSS	low polyreactivity

Sequence	polyreactivity (PSR sort gate)
QVQLVESGGGLVQAGGSLRLSCAASGITFGPYAMGWYRQAPGKERELVAAITWGGGSTYYADSVKGRFTISRDNAKTTVYLQMNSLKPEDTAVSYCNAEGSTTSRYLPYDYWGQGTQVTVSS	low polyreactivity
QVQLVESGGGLVQAGGSLRLSCAASGRIFGRYAMGWYRQAPGKERELVAAITGRGASTYYADSVKGRFTISRDNAKNTVYLQMNSLKPEDTAVYYCNAFRGAQGTDAYDWGQGTQVTVSS	low polyreactivity
QVQLVESGGGLVQAGGSLRLSCAASGRTFNHNPMRWYRQAPGKERELVAAISYSGGGTYYADSVKGRFTFSRDNAKNSVYLQMNSLKPEDTAVYFCAAYPVRGAYGYWGQGTQVTVSS	low polyreactivity
QVQLVESGGGLVQAGGSLRLSCYASGFIFHSYAMGWYRQAPGKERELVASISRGGGSTYYADSVKGRFTISRDNAKNTVYLQKNSLKPEDTPVYYCNAVWRSNSRFDYWGQCTQVTVSS	high polyreactivity
QVQLVESGGGLVQAGGSLRLSCAASGSTFGYYAMGWYRQAPGKERELVATITKRGGSTYADSVKGRFTISRDNAKNTVYLQMNSLKPEDTAVYYCAKLPFEDYDYWGQGTQVTVSS	low polyreactivity
QVQIVESGGGLVQAGGSLRVSCAASGSTFAVYAMGWYRQAPGKEREMVAAISQSGGSTNYADSVKGRFTISRDNAKNTVYLQMNSLKPEDTAVYYCNVDVSRSWAQPYTYDYWGHGTQVTVSS	low polyreactivity
QVQLVESGGGLVQAGGSLRLSCAASGMTFGLYAMGWYRQAPGKERELVAAISKRGGSTNYADSVKGRFTISRDNAKNTVYLQMNSLKPEDTAGYYCAARYPQRGTGKATYVRSRSGYWGLGTQVTVSS	high polyreactivity
QVQLVESGGGLVQAGGSLRLSCAASGSTFYYYTMGWYRQAPGKEREFVAAITRSGGSTYYADSVKGRFTISRDNSKNTVYFQMNSLKPEDTAVYYCNVDGTSSSPFVQKHKEMDYWGQGTQVTVSS	low polyreactivity
QVQLVESGGGLVQAGGSLRLSCAAAGFTFYIYAMGWYRKAPGKERELVAAITTTTGSTYYADSVKGRFTISRDNAKNTVYLQMNSLKPEDTAVYYCAAEGHYYYFGYYYWGQGTQVTVSS	low polyreactivity
QVQIVESCGGLVQAGGSLRLICAASGFIFTHYAMGWYRQAPGKERELVAAISSGGSTYYADSVKGRFTISRDNAKYTVYLQMNSLKPEDTAVYYCAAVWPWRYYATGENYWGQGTQVTVSS	high polyreactivity
QVQIVESGGGLVQARGSLRLSCAASGRTFYGYALGWYRQAPGKERELVASIRSRTGSTYYADSVKGRFTISRDNAKNTVYLLMNILKPEDTAVYYCARPYYAKGFAFDYWGLGTQVTVSS	high polyreactivity
QVQLVESGGGLVQAGGSLRLSCAASGSIFGYYAMGWYRQAPGKEREFDADINSRDGGTYYADSVKGRFTISRDNAKNTVYLQMNSLKPEDTAVYYCAAPYYAAWVAVAIEYDYWGQGTQVTVSS	low polyreactivity
QVQLVESGGGLVQAGGSLRLSCAASGSIYGYNAMGWYRQAPGKEREFVAAISWSGGRTYYADSVKGRFTISRDTAKNTVYLQMNSLNPEDTAVYYCAAPSRPAPRFDYWGQGTQVTVSS	low polyreactivity
QVQLVESGGGLVQAGGSLRLSCAASGRIFWSYAMGWYRQAPGKERELVAAINSGGSTNYADSVKGRFTISRDNAKNTVYLQMNSLKPEDTAVYYCAAGFYYVYVWLGEYWVQGTQVTVSS	low polyreactivity
QVQLVESGGGLVQAGGSLRLSCAASGRIFGIYAMGWYRQAPGKERELVASITDGTITNYADSVKGRFTISRDNAKNTVYLQMNSLKPVDTAVYYCAAGTQAHAYVVRPIEMDYWGQGTQVTVSS	low polyreactivity
QVHLVESGGGLVQAGGSLRISCAASGFTFRKYSMGWYRQAPGKERELVAGITSGGSTNNADSVKGRFTISRDNAKNTVYLQMNSLKPEDTAVYYCNAARYYAYIGDYWGQCTQVTVSS	high polyreactivity
QVQLVESGGGLVQAGGSLRLSCAASGRTFRQYAMGWYRQAPGKERELVARIRWRGGTTYYADSVKGRFTISRDNAKNTVYLQMISLKPEDTAVYYCAADKYGTEYDYWGQGTQVTVSS	high polyreactivity
QVHLVESGGGLVQAGGSLRLSCAASGFIFSWYDMGWYRQAPGKERELVAAINWSGGSTYYADSVKGRFTISRDNAKNTVYLQIISLKPEDTAVYYCAAVRQSQFEYWGQGTQVTVSS	high polyreactivity
QVQLVESGGGLVQAGGSLRLSCAASGRTFRLNAMGWYRQAPGKERELVAGIRVRAGTTYYADSVKGRFTLSRDNAKNTVYLQMNSLKPEDTAVYYCAAESYSRSRKYDYWGQGTQVTVSS	high polyreactivity
QVQLVESGGGLVQAGGSLRLSCAASGFIFPQNAMGWYRQAPGKERELVAAIRWSGGRTYYADSVKGRFTISRDNAKNTVYLQMNSLNPEDTAVYYCAADVRQRGIYGPGPHYYWGQGTQVTVSS	high polyreactivity
QVQLVESGGGLVQAGGRLRLSCAPSGSTFHSNDMGWYRQAPGKERELVAAITWSGARTYYVDSVKGRFTISRDNAKNTVYLQMNSLKPEDTAVYSCAKKAPSDRNNYWGQGTQVTVSS	high polyreactivity

— the nanobody polyreactivity screen of Harvey et al. (2022)
